# Reference: PMC4081085
# Experiments:
# Experiment in all cases: fluorescence polarization
# [1] = tested on: PARP-2 WT; conditions: none, FP: 5 nM labeled DNA, 30 min, RT, PARP-1/-2 buffer per cited ref 19, PARP-3 in 12 mM HEPES pH 8.0, 30 mM KCl (low) or 60 mM KCl (intermediate), 0.12 mM EDTA
# [2] = tested on: PARP-3 R103A; conditions: 5' phosphate at nick, position 24, FP: 5 nM labeled DNA, 30 min, RT, PARP-1/-2 buffer per cited ref 19, PARP-3 in 12 mM HEPES pH 8.0, 30 mM KCl (low) or 60 mM KCl (intermediate), 0.12 mM EDTA
# [3] = tested on: PARP-3 Y150F; conditions: 5' phosphate at nick, position 24, FP: 5 nM labeled DNA, 30 min, RT, PARP-1/-2 buffer per cited ref 19, PARP-3 in 12 mM HEPES pH 8.0, 30 mM KCl (low) or 60 mM KCl (intermediate), 0.12 mM EDTA
# [4] = tested on: dNTR-PARP-3; conditions: low ionic strength buffer?, 5' phosphate at nick, position 24, FP: 5 nM labeled DNA, 30 min, RT, PARP-1/-2 buffer per cited ref 19, PARP-3 in 12 mM HEPES pH 8.0, 30 mM KCl (low) or 60 mM KCl (intermediate), 0.12 mM EDTA
# [5] = tested on: PARP-2 N116A; conditions: 5' phosphate on one strand, FP: 5 nM labeled DNA, 30 min, RT, PARP-1/-2 buffer per cited ref 19, PARP-3 in 12 mM HEPES pH 8.0, 30 mM KCl (low) or 60 mM KCl (intermediate), 0.12 mM EDTA
# [6] = tested on: PARP-2 R140A; conditions: 5' phosphate on one strand, FP: 5 nM labeled DNA, 30 min, RT, PARP-1/-2 buffer per cited ref 19, PARP-3 in 12 mM HEPES pH 8.0, 30 mM KCl (low) or 60 mM KCl (intermediate), 0.12 mM EDTA
# [7] = tested on: PARP-2 W138A; conditions: 5' phosphate on one strand, FP: 5 nM labeled DNA, 30 min, RT, PARP-1/-2 buffer per cited ref 19, PARP-3 in 12 mM HEPES pH 8.0, 30 mM KCl (low) or 60 mM KCl (intermediate), 0.12 mM EDTA
# [8] = tested on: PARP-2 Y188F; conditions: 5' phosphate on one strand, FP: 5 nM labeled DNA, 30 min, RT, PARP-1/-2 buffer per cited ref 19, PARP-3 in 12 mM HEPES pH 8.0, 30 mM KCl (low) or 60 mM KCl (intermediate), 0.12 mM EDTA
# [9] = tested on: dNTR-PARP-2; conditions: 5' phosphate on one strand, FP: 5 nM labeled DNA, 30 min, RT, PARP-1/-2 buffer per cited ref 19, PARP-3 in 12 mM HEPES pH 8.0, 30 mM KCl (low) or 60 mM KCl (intermediate), 0.12 mM EDTA
substance,measurement,setting,value
28-bp duplex 5'OH (non-phosphorylated),binding signal (fold lower affinity than for 5'P DNA),[1],2.5
47-bp duplex with 5'P nick (template 8),binding signal (% of WT affinity),[2],25
same,binding signal (% of WT affinity),[3],54
same,binding signal (fold lower affinity than WT),[4],3.5
28-bp duplex 5'P (template 18),binding signal (% of WT affinity),[5],45
same,binding signal (% of WT affinity),[6],25
same,binding signal (% of WT affinity),[7],28
same,binding signal (% of WT affinity),[8],7
same,binding signal (fold lower affinity than WT),[9],4
